Positions count from the first letter of the chain named.
B1: anti-variant (human) Fc-region antibody M1.3.17 (antibody, V domains shown)
VH: EVKLLESGGGLVQPGGSLKLSCAASGIDFRRYWMNWVRQAPGKGLEWIGEIDPDSSTINYTPSLKDKFIISRDNAKNTMYLQMRKVRSEDTALYYCARPYDYGAWFAYWGQGTLVTVSA
VL: QAVVTQESALTTSPGETVTLTCRSTTGAVTTSNYANWVQEKPDHLFTGLIGGTNKRAPGVPARFSGSLIGDKAALTITGAQTEDEAIYFCALWYSDHWVFGGGTKLTVL
B2: anti-variant (human) Fc-region antibody M1.7.24 (antibody, V domains shown)
VH: B1 VH with I27F, R30S, D52T, M79L, R84I, A97V, Y108S
VL: B1 VL with T25S, D96N

Legend:
[1] = biological target: anti-VEGF/ANG2 antibody (IgG1 subclass with mutations P329G/L234A/L235A/I253A/H310A/H435A) [IgG part: P01857]; assay: bridging ELISA; biotinylated and digoxigenylated anti-VEGF/ANG2 antibody bridged by M1.3.17 at 62.5 ng/mL
[2] = biological target: anti-VEGF/ANG2 antibody (IgG1 subclass with mutations P329G/L234A/L235A/I253A/H310A/H435A) [IgG part: P01857]; assay: sandwich ELISA in serum; capture M1.3.17, tracer M1.7.24; anti-VEGF/ANG2 antibody 1250 ng/mL
[3] = biological target: anti-VEGF/ANG2 antibody (IgG1 subclass with mutations P329G/L234A/L235A/I253A/H310A/H435A) [IgG part: P01857]; assay: sandwich ELISA in serum; capture M1.3.17, tracer M1.7.24; anti-VEGF/ANG2 antibody 156.25 ng/mL
[4] = biological target: anti-VEGF/ANG2 antibody (IgG1 subclass with mutations P329G/L234A/L235A/I253A/H310A/H435A) [IgG part: P01857]; assay: sandwich ELISA in serum; capture M1.7.10-Bi, tracer M1.7.24-Dig; anti-VEGF/ANG2 antibody 0.625 ng/mL
[5] = biological target: cytokine (IL-2) antibody conjugate with the mutations P329G, L234A, L235A, I253A, H310A, and H435A; assay: sandwich ELISA in serum; capture anti-IL2 antibody, tracer M1.7.24; conjugate 2500 ng/mL
[6] = biological target: cytokine (IL-2) antibody conjugate with the mutations P329G, L234A, L235A, I253A, H310A, and H435A; assay: sandwich ELISA in serum; capture anti-IL2 antibody, tracer M1.7.24; conjugate 625 ng/mL
[7] = biological target: cytokine (IL-2) antibody conjugate with the mutations P329G, L234A, L235A, I253A, H310A, and H435A; assay: sandwich ELISA in serum; capture anti-IL2 antibody, tracer M1.7.24; conjugate 0 ng/mL (blank)
[8] = biological target: anti-VEGF/ANG2 antibody (IgG1 subclass with mutations P329G/L234A/L235A/I253A/H310A/H435A) [IgG part: P01857]; assay: sandwich ELISA in serum; capture M1.7.10-Bi, tracer M1.7.24-Dig; anti-VEGF/ANG2 antibody 0.15625 ng/mL
[9] = biological target: cytokine (IL-2) antibody conjugate with the mutations P329G, L234A, L235A, I253A, H310A, and H435A; assay: sandwich ELISA in serum; capture anti-IL2 antibody, tracer M1.7.24; conjugate 39.0625 ng/mL

Row | Binder | signal [OD405 nm] [1] [OD405 nm] | signal [OD405 nm] [2] [OD405 nm] | signal [OD405 nm] [3] [OD405 nm] | signal [OD405 nm] [4] [OD405 nm] | signal [OD405 nm] [5] [OD405 nm] | signal [OD405 nm] [6] [OD405 nm] | signal [OD405 nm] [7] [OD405 nm] | signal [OD405 nm] [8] [OD405 nm] | signal [OD405 nm] [9] [OD405 nm]
1 | B1 | 0.063 | 1.88 | 0.418 |  |  |  |  |  | 
2 | B2 |  |  |  | 0.468 | 2.35 | 0.811 | 0.0475 | 0.147 | 0.101

Source: US20180346602A1
